Patent US20240228658A1 (IMMUNORIZON, published 2024)
Positions count from the first letter of the chain named. Like-named read-outs stand apart in the source and are kept apart here.

What was measured:
[1] = molecular target: T1, recombinant human 5T4 ECD protein fused to human Fc (human, UniProt Q13641 32-355); experiment: Octet, mAb on AMC sensor, 5T4-Fc as analyte
T1 construct: extracellular domain; Immunogen, ELISA antigen and Octet analyte; also called 5T4-ECD-hFc; 5T4-ECD-Fc; not shown: human Fc
T1 sequence (looked up): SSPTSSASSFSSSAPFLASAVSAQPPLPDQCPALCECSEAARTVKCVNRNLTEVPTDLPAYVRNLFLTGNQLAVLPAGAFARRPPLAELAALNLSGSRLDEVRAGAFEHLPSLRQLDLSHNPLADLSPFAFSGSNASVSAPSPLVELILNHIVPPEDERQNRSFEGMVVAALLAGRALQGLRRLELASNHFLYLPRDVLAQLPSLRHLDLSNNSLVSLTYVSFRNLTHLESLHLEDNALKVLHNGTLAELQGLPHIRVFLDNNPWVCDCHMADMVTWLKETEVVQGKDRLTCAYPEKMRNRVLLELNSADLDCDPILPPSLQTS
Protocol: (§1) Binding Affinities by Octet Test. Briefly, mAb were analyzed by Octet RED 384 instrument, where human 5T4-ECD Fc antigen at 200 nM and 100 nM served as the analyte and the purified mAbs at 5 μg/ml served as the ligand, bound to AMC sensor (anti mouse Fc antibody) with immobilized phase of 180 s, association phase of 300 s, dissociation phase of 180 s.
(§2) FIGS. 7A-7G present the Octet data determined the KD affinities of selected mAb.

[2] = molecular target: T1, recombinant human 5T4 ECD protein fused …; experiment: Octet, mAb on AMC sensor, 5T4-ECD Fc as analyte
Protocol: as §1, §2

[3] = molecular target: T2, cyno 5T4 on CHO cells (cyno, UniProt Q4R8Y9 35-420); experiment: FACS, CHO cells over expressing cyno 5T4
T2 construct: whole, on cells; also called CHO over expressing cyno 5T4
T2 sequence (looked up): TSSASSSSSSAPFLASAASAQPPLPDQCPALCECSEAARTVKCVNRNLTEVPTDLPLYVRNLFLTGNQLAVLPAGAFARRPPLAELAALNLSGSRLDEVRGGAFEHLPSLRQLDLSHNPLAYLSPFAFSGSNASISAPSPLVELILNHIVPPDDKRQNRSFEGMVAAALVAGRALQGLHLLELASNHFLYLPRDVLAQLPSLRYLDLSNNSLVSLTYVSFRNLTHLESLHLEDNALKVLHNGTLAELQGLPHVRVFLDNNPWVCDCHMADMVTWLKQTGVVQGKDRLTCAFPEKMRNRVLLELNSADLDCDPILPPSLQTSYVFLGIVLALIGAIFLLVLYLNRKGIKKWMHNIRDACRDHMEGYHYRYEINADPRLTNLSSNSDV

[4] = molecular target: T1, recombinant human 5T4 ECD protein fused …; experiment: ELISA, coated 5T4 antigen
[5] = molecular target: T3, human 5T4 on cells (human, UniProt Q13641 32-420); experiment: FACS, CHO cells over expressing human 5T4
T3 construct: whole, on cells; also called CHO cells over expressing human 5T4; MCF-7 (endogenous 5T4)
T3 sequence (looked up): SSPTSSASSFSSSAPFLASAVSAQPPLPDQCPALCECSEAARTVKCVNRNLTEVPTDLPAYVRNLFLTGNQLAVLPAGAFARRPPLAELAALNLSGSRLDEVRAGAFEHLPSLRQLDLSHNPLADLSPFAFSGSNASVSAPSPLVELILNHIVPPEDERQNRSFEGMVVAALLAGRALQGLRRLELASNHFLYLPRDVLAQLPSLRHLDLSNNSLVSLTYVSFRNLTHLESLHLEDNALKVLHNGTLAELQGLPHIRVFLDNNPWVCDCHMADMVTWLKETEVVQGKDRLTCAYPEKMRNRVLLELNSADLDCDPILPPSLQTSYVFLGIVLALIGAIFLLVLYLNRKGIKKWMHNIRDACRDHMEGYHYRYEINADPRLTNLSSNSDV

[6] = molecular target: T2, cyno 5T4 on CHO cells; experiment: FACS, CHO cells over expressing cyno 5T4; remark: listed apart in the source
[7] = molecular target: T4, h5T4-His (cat #19845-H08H, Sino Biological) (human, UniProt Q13641 32-355); experiment: ELISA on recombinant 5T4 protein; ELISA on recombinant 5T4 protein
T4 construct: also called recombinant 5T4 protein; 5T4 recombinant antigen protein; not shown: His tag
T4 sequence (looked up): T1 sequence (looked up)

[8] = molecular target: T2, cyno 5T4 on CHO cells; experiment: FACS on CHO over expressing cyno 5T4 (data not shown); FACS, CHO over expressing cyno 5T4
[9] = molecular target: T3, human 5T4 on cells; experiment: FACS on MCF-7 cells endogenously expressing 5T4; FACS, MCF-7 endogenously expressing 5T4
[10] = molecular target: T3, human 5T4 on cells; experiment: FACS on CHO over expressing human 5T4; FACS, CHO over expressing human 5T4
[11] = molecular target: T2, cyno 5T4 on CHO cells; experiment: FACS, CHO cells over expressing cyno 5T4; remark: listed apart in the source
[12] = molecular target: T1, recombinant human 5T4 ECD protein fused …; experiment: ELISA, coated 5T4 antigen; remark: listed apart in the source
[13] = molecular target: T3, human 5T4 on cells; experiment: FACS, CHO cells over expressing human 5T4; remark: listed apart in the source
[14] = molecular target: T1, recombinant human 5T4 ECD protein fused …; experiment: ELISA, coated 5T4 antigen; remark: listed apart in the source
[15] = molecular target: T1, recombinant human 5T4 ECD protein fused …; experiment: ELISA, coated 5T4 antigen; remark: listed apart in the source
[16] = molecular target: T1, recombinant human 5T4 ECD protein fused …; experiment: Octet (data not shown; antigen format not stated here)

B1: mAb006 (antibody, V domains shown)
VH: EVQLVESGGGLVKPGGSLKLSCAASGFTFSNYVMSWVRQTPEKRLEWVATISDRGSYTYYPDYVKGRFTISRDNAKNNLYLQMSHLKSEDTAMYYCARASYYSNLGFAYWGQGTLVTVSA
VL: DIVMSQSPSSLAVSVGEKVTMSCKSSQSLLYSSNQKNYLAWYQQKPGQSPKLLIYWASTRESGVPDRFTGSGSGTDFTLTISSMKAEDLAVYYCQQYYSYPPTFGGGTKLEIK
notes: also called IM, 5T4 mouse hybridoma cl-6
[1]
  koff: 0.00125 s⁻¹
  kon: 220000 M⁻¹ s⁻¹
[2]
  Kd: 5.67 nM
[3]
  binding result: binds

B2: mAb008 (antibody, V domains shown)
VH: QVQLQQSGAELMKPGASVKLACKATGYTFTAYWIEWVKQRPGHGLEWIGEILPGRGSTNSNEKFKGKATFTADTSSNTVYMQLSSLTTEDSAIFYCARGYRDFDYWGQGTTLTVSS
VL: DIVMTQSQKFMSTTVGDRVSIICKASQNVGTAVAWYQQKPGQSPKVLIYSASNRYTGVPDRFTGSGSGTDFTLTISNMQSEDLADYFCQQYTSYPRTFGGGTKLEIK
notes: also called IM, 5T4 mouse hybridoma cl-8
[1]
  koff: 3.87e-05 s⁻¹
  kon: 185000 M⁻¹ s⁻¹
[4]
  EC50 (read off the curve): ~0.3 nM
[2]
  Kd: 0.209 nM
[5]
  EC50 (read off the curve): ~5 nM
[6]
  EC50 (read off the curve): ~5 nM

B3: mAb010 (antibody, V domains shown)
VH: B2 VH with Q5R, A21S, A31G, T58S, S60Y, F70L, T88I, F94Y, Y100G
VL: DIQMTQITSSLSASLGDRVTIGCSASQGINNNLNWYQQKPDGTVKLLVYYTSSLHSGVPSRFSGSGSGTDYSLTISNLEPEDIATYYCQQFIKLPYTFGGGTKLEIK
notes: also called mAb10; IM, 5T4 mouse hybridoma cl-10
[1]
  koff: 9.53e-05 s⁻¹
  kon: 206000 M⁻¹ s⁻¹
[4]
  EC50 (read off the curve): ~0.3 nM
[2]
  Kd: 0.463 nM
[5]
  EC50 (read off the curve): ~3 nM
[6]
  EC50 (read off the curve): ~4 nM

B4: mAb008-hIgG1 chimeric Ab (antibody, V domains shown)
VH: B2 VH
VL: B2 VL
notes: Mouse VH and VL of mAb008 cloned into human IgG1
[7]
  EC50: 0.4 nM
[8]
  EC50: 5.7 nM
[9]
  EC50: 4.4 nM
[10]
  EC50: 5 nM

B5: mAb014 (antibody, V domains shown)
VH: B2 VH with A9G, A21S, T28K, A31G, S60Y, F94Y, Y100G, Y105F, T110S
VL: B3 VL with I7T, G22S, N31S, V48I, F91Y, I92N
notes: also called IM, 5T4 mouse hybridoma cl-14
[11]
  binding result: binds
[12]
  EC50 (read off the curve): ~0.2 nM

B6: mAb003 (antibody, V domains shown)
VH: B2 VH with A21S, A31G, G56D
VL: B2 VL with T92S
notes: also called IM, 5T4 mouse hybridoma cl-3
[13]
  EC50 (read off the curve): ~4 nM
[3]
  EC50 (read off the curve): ~5 nM
[14]
  EC50 (read off the curve): ~0.4 nM

B7: mAb016 (antibody, V domains shown)
VH: AVQLQQSGPVRVKPGASVKMSCKASGYPFTDYYMNWVKQSHGRSLDWIGVFNPYNGDTRYTQKFKDKATLTIDKSSSTAYMELNSLTSEDSAVYYCARLRLLYDTSEYYVMDYWGQGTSVTVSS
VL: ENVLTQSPAIMSASPGEKVTMTCSASSSVNYMHWYQQKSNTSPKLWIYDTSKLASGVPGRFSGSGSGNSYSLTISSMEAEDVATYFCFQGSGYPYTFGGGTKLEIK
notes: also called mAb0016; IM, 5T4 mouse hybridoma cl-16
[1]
  koff: 3.48e-05 s⁻¹
  kon: 150000 M⁻¹ s⁻¹
[2]
  Kd: 0.232 nM
[15]
  EC50 (read off the curve): ~0.2 nM

B8: mAb016-hIgG1 chimeric Ab (antibody, V domains shown)
VH: B7 VH
VL: B7 VL
notes: Mouse VH and VL of mAb016 cloned into human IgG1; also called mAb0016-IgG1
[7]
  EC50: 0.3 nM
[8]
  EC50: 2.2 nM
[9]
  EC50: 0.9 nM
[16]
  Kd: 14.7 nM
[10]
  EC50: 1.1 nM

B9: mAb018 (antibody, V domains shown)
VH: EVQLRQSGPVLVKPGASLKMSCKASGFTIADYYMTWVTQSHGQSLDWIGLINPYSGETTYNQKFKGKATLSVDKSSNTAYMDLNSLTSEDSAVYYCARWRLGYYAMDYWGRGTSVTVSS
VL: B7 VL with N30S, N40S, L45V, F86Y, S91I
notes: also called IM, 5T4 mouse hybridoma cl-18
[1]
  koff: 6.97e-05 s⁻¹
  kon: 259000 M⁻¹ s⁻¹
[2]
  Kd: 0.269 nM
[11]
  binding result: binds
[15]
  EC50 (read off the curve): ~0.3 nM

B10: mAb005 (antibody, V domains shown)
VH: EVQLVESGGGLVQPKGSLQLSCAASGFTFNTYAMHWVRQAPGKGLEWVARIRSKSSNYATYYADSVKDRFTISRDDSQSMLYLQMNNLKTEDTAMYYCVRDGDYYYGSRPSYWYFDVWGTGTTVTVSS
VL: DILLTQSPAILSVSPGERVSFSCRASQSIGTNIHWYQQRTNGSPRLLIKYASESISGIPSRFSGSGSGTDFTLSINNVESEDIADYYCQQTNTWPLTFGAGTKLDLK
notes: also called IM, 5T4 mouse hybridoma cl-5
[1]
  koff: 0.00024 s⁻¹
  kon: 89300 M⁻¹ s⁻¹
[2]
  Kd: 2.69 nM
